Measured values taken from patent US9694061B2, “Fully human antibodies to high molecular weight-melanoma associated antigen and uses thereof” (University of Pittsburgh—Of the Commonwealth System of …, priority 2008, dated 2017).

How the values were obtained:
HMW-MAA [1] = target: T1, HMW-MAA (Homo sapiens, UniProt Q6UVK1); test: Flow cytometry of M14/HMW-MAA transfectants and parental M14 cells stained with scFv; type: binding; parameters: from tissue; host or cells: human nevi, primary and metastatic melanoma lesions (frozen sections)
T1 sequence (Q6UVK1 30-2322): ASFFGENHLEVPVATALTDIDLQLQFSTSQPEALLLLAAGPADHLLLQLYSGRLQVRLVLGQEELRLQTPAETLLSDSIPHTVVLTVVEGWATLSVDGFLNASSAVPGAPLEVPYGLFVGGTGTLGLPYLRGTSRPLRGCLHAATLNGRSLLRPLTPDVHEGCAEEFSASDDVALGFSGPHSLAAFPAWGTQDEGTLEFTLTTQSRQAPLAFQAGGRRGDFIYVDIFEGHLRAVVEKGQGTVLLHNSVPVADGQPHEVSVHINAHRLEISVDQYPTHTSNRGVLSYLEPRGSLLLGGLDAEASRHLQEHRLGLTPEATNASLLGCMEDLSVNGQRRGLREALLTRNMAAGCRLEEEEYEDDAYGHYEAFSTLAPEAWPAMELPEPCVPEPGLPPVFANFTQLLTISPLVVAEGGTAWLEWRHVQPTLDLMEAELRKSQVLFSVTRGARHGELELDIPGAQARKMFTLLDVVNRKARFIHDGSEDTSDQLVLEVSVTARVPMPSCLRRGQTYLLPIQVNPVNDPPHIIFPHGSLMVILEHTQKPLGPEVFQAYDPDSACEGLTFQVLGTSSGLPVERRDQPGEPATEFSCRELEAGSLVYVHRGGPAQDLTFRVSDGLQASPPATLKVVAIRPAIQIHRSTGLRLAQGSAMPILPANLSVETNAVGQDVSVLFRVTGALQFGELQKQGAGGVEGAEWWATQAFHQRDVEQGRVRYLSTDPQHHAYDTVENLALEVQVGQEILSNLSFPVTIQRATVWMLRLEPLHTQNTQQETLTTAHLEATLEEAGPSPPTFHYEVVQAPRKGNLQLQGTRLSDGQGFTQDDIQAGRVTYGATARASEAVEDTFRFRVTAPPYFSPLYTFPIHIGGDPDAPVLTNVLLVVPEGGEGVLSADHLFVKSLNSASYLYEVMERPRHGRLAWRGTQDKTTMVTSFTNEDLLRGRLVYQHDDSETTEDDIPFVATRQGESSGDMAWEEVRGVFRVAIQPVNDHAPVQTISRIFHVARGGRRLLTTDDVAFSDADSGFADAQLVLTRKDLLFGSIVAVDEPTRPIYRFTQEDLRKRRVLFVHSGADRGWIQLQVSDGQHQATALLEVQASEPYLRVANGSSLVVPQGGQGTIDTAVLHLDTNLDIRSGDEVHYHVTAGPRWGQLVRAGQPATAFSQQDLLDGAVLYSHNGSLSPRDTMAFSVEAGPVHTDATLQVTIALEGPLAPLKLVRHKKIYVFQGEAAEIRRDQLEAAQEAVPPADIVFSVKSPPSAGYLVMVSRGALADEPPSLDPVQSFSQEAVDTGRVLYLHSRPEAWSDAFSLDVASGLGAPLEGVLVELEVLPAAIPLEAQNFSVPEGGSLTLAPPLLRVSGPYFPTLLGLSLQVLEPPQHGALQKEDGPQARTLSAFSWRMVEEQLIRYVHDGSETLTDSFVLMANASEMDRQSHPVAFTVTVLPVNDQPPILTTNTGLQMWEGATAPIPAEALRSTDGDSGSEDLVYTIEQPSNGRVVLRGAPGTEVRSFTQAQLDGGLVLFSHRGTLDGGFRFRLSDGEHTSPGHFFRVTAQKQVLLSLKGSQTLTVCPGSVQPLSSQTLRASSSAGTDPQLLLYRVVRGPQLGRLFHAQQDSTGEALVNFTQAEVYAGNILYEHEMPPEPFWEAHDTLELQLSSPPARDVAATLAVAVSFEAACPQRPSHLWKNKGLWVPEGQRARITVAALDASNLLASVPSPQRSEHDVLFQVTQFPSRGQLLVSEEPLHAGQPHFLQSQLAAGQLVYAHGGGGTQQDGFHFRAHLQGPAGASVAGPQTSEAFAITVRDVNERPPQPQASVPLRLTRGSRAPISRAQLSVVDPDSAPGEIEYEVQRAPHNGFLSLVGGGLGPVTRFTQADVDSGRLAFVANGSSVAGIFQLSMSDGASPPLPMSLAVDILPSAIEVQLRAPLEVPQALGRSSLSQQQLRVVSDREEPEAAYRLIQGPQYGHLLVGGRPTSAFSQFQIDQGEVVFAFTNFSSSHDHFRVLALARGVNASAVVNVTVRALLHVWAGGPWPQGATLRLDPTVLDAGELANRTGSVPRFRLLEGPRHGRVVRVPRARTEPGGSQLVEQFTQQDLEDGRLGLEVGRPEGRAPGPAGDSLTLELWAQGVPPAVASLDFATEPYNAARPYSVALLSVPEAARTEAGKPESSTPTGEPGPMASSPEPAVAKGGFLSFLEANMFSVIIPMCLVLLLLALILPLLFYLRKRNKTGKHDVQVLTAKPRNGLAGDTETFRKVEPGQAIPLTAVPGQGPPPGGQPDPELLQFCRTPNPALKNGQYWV
Method: FIG. 2. Flow cytometry analysis of HMW-MAA^+ M14#5/HMW-MAA melanoma cells stained with scFv C21. M14#5/HMW-MAA transfectants and parental HMW-MAA^− M14#5 cells were incubated on ice with PP scFv C21 and mAb 9E10 (empty histogram) and control PP scFv 119 and mAb 9E10 (grey histogram) (top panel), with HMW-MAA-specific mouse mAb 763.74 (0.5 μg) (empty histogram) and control mAb MK2-23 (grey histogram) (middle panel) and with HLA class I antigen-specific mAb TP25.99 (empty histogram) and control mAb MK2-23 (grey histogram) (bottom panel). Binding of antibodies was detected using RPE-labeled F(ab′)2 fragments of goat anti-mouse Ig antibodies. Cells were analyzed with a FACScan™ flow cytometer. Results are expressed as fluorescence intensity.
Flow cytometry analysis of melanoma cells stained with scFv antibodies or antibodies in immune sera was performed as described (Wang et al., J Immunol Methods 294:23-35, 2004, herein incorporated by reference). […] Following two washes, cells were fixed in 2% formaldehyde and analyzed with a FACScan™ flow cytometer (BD Biosciences, San Jose, Calif.). A total of 10,000 cells were counted using a forward and side scatter gate to eliminate aggregates and debris for each sample. Results are expressed as relative fluorescence intensity.

HMW-MAA [2] = target: T1, HMW-MAA; test: Indirect immunoperoxidase staining of melanocytic lesions; type: binding; parameters: from tissue; host or cells: human nevi, primary and metastatic melanoma lesions (frozen sections)
Excerpt: FIGS. 6A-6F. Immunohistochemical staining by scFv C21 of frozen surgically removed human nevi and melanoma lesions. scFv C21 stains a frozen nevus (FIG. 6A), a frozen primary melanoma lesion (FIG. 6B) and a frozen metastatic melanoma lesion (FIG. 6C). The specificity of the staining was monitored by staining the nevus (FIG. 6D), the primary (FIG. 6E) and the metastatic (FIG. 6F) melanoma lesions with the unrelated scFv #119.
The human melanoma cell lines Colo38, FO-1 and Melur and the human B lymphoid cell line LG2 were maintained in RPMI 1640 medium (Tissue Culture Media Facility, Roswell Park Cancer Institute (RPCI), Buffalo, N.Y.) supplemented with 10% serum plus supplement (BioWhittaker, Walkersville, Md.) and 2 mM L-glutamine (BioWhittaker). The human melanoma cell lines M14 and SK-MEL-28, the human fibroblasts FF2376, the human breast carcinoma cell line T47D, the human bladder carcinoma cell line T24, the human prostate carcinoma cell line PC3, the human B lymphoid cell lines JY and LKT13, and the rat neural cell line B49 were maintained in RPMI 1640 medium supplemented with 10% fetal bovine serum (FBS) (BioWhittaker) and 2 mM L-glutamine. The M14/HMW-MAA cells which express HMW-MAA following transfection of M14 cells with a plasmid DNA of pcDNA 3.1™ (+)/full length of HMW-MAA DNA construct (Yang et al., J Cell Biol 165:881-891, 2004) were grown in RPMI 1640 medium supplemented with 10% FBS, 2 mM L-glutamine and 0.4 mg/ml G418 (Promega, Madison, Wis.). Cells were cultured at 37° C. in a 5% CO2 atmosphere. Cell lysates were prepared as described (Desai et al., Cancer Res 58:2417-2425, 1998, herein incorporated by reference). Lesions of melanocytic origin were obtained from patients who had undergone surgery in the Department of Dermatology at Kumamoto University School of Medicine (Kumamoto, Japan). The diagnosis of melanoma lesions was based on histopathologic characteristics. The frozen and formalin-fixed tissue sections were prepared as described previously (Desai et al., Cancer Res 58:2417-2425, 1998, herein incorporated by reference).
The indirect immunoperoxidase staining of frozen and formalin-fixed tissue sections was performed as described previously (Desai et al., Cancer Res 58:2417-2425, 1998, herein incorporated by reference).

B1: scFv C21: HMW-MAA-specific fully human scFv from semi-synthetic phage display library; VH SEQ ID NO: 5, VL SEQ ID NO: 6 (antibody, listed as Homo sapiens, V domains shown)
VH: QVQLVQSGAEVKKPGSSVKVSCKASGGTFSSYAISWVRQAPGQGLEWMGGIIPIFGTANYAQKFQGRVTITADESTSTAYMELSSLRSDDTAVYYCARALDPITFDSWGQGTLVTVSR
VL: SELTQDPAVSVALGQTVRITCQGDSLRSYYASWYQQKPGQAPVLVIYGKNNRPSGIPDRFSGSSSGNTASLTITGAQAEDEADYYCNSRDSSGNHVVFGGGTKLTVLGRS
modifications: scFv linker
Flow cytometry staining of HMW-MAA transfected M14 cells (HMW-MAA [1]; M14 cells stably transfected with full length HMW-MAA): stained M14 cells which express HMW-MAA
Flow cytometry staining of parental M14 cells (HMW-MAA [1]; parental M14 cells, do not express HMW-MAA): did not stain the parental M14 cells
Staining of formalin fixed paraffin embedded melanocytic lesions (HMW-MAA [2]; formalin fixed paraffin embedded): did not stain
Staining of frozen melanocytic lesions in the immunoperoxidase reaction (HMW-MAA [2]; frozen sections): stained frozen melanocytic lesions
Metastatic lesions stained with a heterogeneous pattern (HMW-MAA [2]; metastatic lesions): 3 lesions
Metastatic lesions stained with a homogeneous pattern (HMW-MAA [2]; metastatic lesions): 3 lesions
Metastatic lesions with cytoplasmic staining (HMW-MAA [2]; metastatic lesions): 3 lesions
Metastatic lesions with membranous and cytoplasmic staining (HMW-MAA [2]; metastatic lesions): 3 lesions
Primary lesions stained with a heterogeneous pattern (HMW-MAA [2]; out of 15 primary lesions): 2 lesions
Primary lesions stained with a homogeneous pattern (HMW-MAA [2]; out of 15 primary lesions): 9 lesions
Pigmented nevi stained homogeneously (membranous and cytoplasmic pattern) (HMW-MAA [2]; pigmented nevi): 4
Primary lesions with cytoplasmic staining (HMW-MAA [2]; primary lesions): 6 lesions
Primary lesions with membranous and cytoplasmic staining (HMW-MAA [2]; primary lesions): 4 lesions
Primary lesions with membranous staining (HMW-MAA [2]; primary lesions): 1 lesions
